# Assay results: the RNAGym collection of RNA variant scans (doi:10.1073/pnas.2313332121)
# Fewer inactive variants are shown than the library holds.
# B1: TPR 5TU (parent)
# chain: GGAUCUUCUCGAUCUAACAAAAAAGACAAAUCUGCCACAAAGCUUGAGAGCAUCUUCGGAUGCAGAGGCGGCAGCCUUCGGUGGCGCGAUAGCGCCAACGUUCUCAACUAUGACACGCAAAACGCGUGCUCCGUUGAAUGGAGUUUAUCAUG
# Variants of: B1
# Assay: polymerase ribozyme fitness, log enrichment relative to wild type (log ratio); higher = more active; in vitro selection for triplet polymerase activity
# In short: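 A single round of triplicate in vitro selection, including frozen incubation at −7 °C, was applied to PCR-built, transcribed mutant libraries of each subunit of a heterodimeric triplet polymerase ribozyme. Illumina sequencing of input and output libraries retained genotypes with ≥10 input reads and ≥1 read per output. Fitness is the base-2 logarithm of genotype enrichment divided by wild-type enrichment, from inverse-variance-weighted replicate averages.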
row,Variant,polymerase ribozyme fitness (log ratio)
1,U102G G124A,-2.85
2,C96G A98U C103G A113C G143A,≤ -4.2
3,G94U A150G,-2.5
4,G94U A150U,-0.849
5,A98G A115G U135G,-3.81
6,C99U A147G,-2
7,C96G G143C,-2.86
8,C96G A121C C129U,-0.0949
9,C96U U101G G124C,-0.75
10,A97U C125A,-0.436
11,C95U A150G,-2.25
12,C103A U144G,-2.84
13,C95A A120G A138G,-2.96
14,C99G A115G C125G G136C,-3.89
15,C99U A150C,≤ -4.2
16,C99U A150G,-0.552
17,C96G G100U,-3.95
18,A97G G143A,-1.44
19,A97U G140U,-3.87
20,C96U U145A A150U,0.912
21,C103G G128C,≤ -4.2
22,C96A U148A,-3.15
23,C103U U139A,-3.96
24,C96A G124A,-0.328

row,Variant,polymerase ribozyme fitness (log ratio)
1,C96A G124U,-0.674
2,C95U C116A C129G U148G,≤ -4.2
3,C103G U151A,≤ -4.2
4,C99G G124A G141U,-0.199
5,A97G C123G C131G,-2.72
6,G100A C129G,≤ -4.2
7,G100U C131U,≤ -4.2
8,C96G U134G,-1.64
9,C96U U144G,-0.238
10,A97U U139A U144A,-4.08
11,C96G A142U U146A,-1.97
12,A97U C99G,-1.6
13,C103G C108G G124C U144A U145G,≤ -4.2
14,C99U U102A,-1.33
15,C96A U130C,0.457
16,C95U C123U,0.509
17,C95A C96A U104C A142C,-4.07
18,C103G A121G,-1.32
19,C96A G126C,-0.953
20,C99A A115U A120G,-2.43
21,C95A U101C,0.62
22,A98U C129U,0.463
23,A97U U109G,-1.62
24,A97U U151G,≤ -4.2

row,Variant,polymerase ribozyme fitness (log ratio)
1,C96U G141C,-0.372
2,C96U G141A,0.0586
3,C103G A120U,-1.5
4,G94U C96U,-0.719
5,C95U A98G,-1.9
6,C95U A98C,-1
7,C96A C105G C125A,-2.29
8,C95U U102G,-1.19
9,C95U U102C,-1.06
10,C96G C105U C116G A119U C132U,-1.57
11,C96U A115G G136U A142G,-3.69
12,C96A A137U,-3.87
13,U102C G136A,-0.705
14,C95U U111G,≤ -4.2
15,C96U C149U,-0.874
16,C99A C118G A119C,-0.582
17,C96G A97G,-2.61
18,C96G A97U,-1.83
19,C95U A147U,0.673
20,C96A A142U,-1.24
21,A97U G124U,-1.05
22,C103G U144A,-2.15
23,C96U C105A C116G,-1.79
24,C95A C96A C116U,-0.649

row,Variant,polymerase ribozyme fitness (log ratio)
1,U102C U134A,-3.46
2,G100A G126A,-4.02
3,C96G G141C,-0.919
4,C99G U144A U148A,≤ -4.2
5,C96U C123U,-0.655
6,C96U C123A,-0.106
7,C95U C99G U104G A110G C116A A142U,≤ -4.2
8,A98G G124C,-0.819
9,C103G G141U,-3.36
10,C99A G136A,-0.217
11,C96U A97C,0.0607
12,U101C A150G,-1.59
13,C96G A110G,-3.11
14,G100U U101G,-3.34
15,A98U A137C,-4.19
16,C96G C105G,-1.92
17,C99G G126U,-0.93
18,C99G G126A,-0.619
19,U101G C118A G126A,-3.59
20,C96U G133A,-3.92
21,C96U A97G G124A C149A,-4.08
22,U104G A119C C123U,0.501
23,C99G U102G U135A,≤ -4.2
24,A97G G152A,-3.19

row,Variant,polymerase ribozyme fitness (log ratio)
1,A97U G117U,-1.25
2,A98G U104G C118U,-0.702
3,C99G A147C,-1.47
4,C96A U101C U109A C118A,-1.54
5,G100U U139G U146G,≤ -4.2
6,U101G G136A,0.652
7,U101G G136C,-2.44
8,U102G U104C,≤ -4.2
9,C96G A107G,≤ -4.2
10,C95U C105G,-0.337
11,C99G U101A,-1.12
12,C103A A115U,-3.09
13,C103A A115C,-2.54
14,U104G U134G G143A,-3.69
15,C96G C131A,-2.35
16,U104C,0.352
17,U104A,0.0691
18,U104G,-0.299
19,C96A U151C,-3.24
20,C96A G117U A138U,≤ -4.2
21,C99A C114U U135G,-3.68
22,C96A C105U,0.343
23,C96A C105G,-1.4
24,C95U C114U,-1.72

row,Variant,polymerase ribozyme fitness (log ratio)
1,C99A U101G,-3.16
2,C95A G141C,0.744
3,C96G A98G G124A,-1.82
4,C96U U148G,-3.13
5,C96U U148A,-3.33
6,C96U G126A,0.845
7,G94C U101C,-0.185
8,U101G G124A,0.852
9,C96G C125G U130G C132A,≤ -4.2
10,C95U C96A C99U C108U,-4.11
11,C95A C96A,-2.33
12,C103G A138G,-3.66
13,G94U C129G A147U,≤ -4.2
14,A98G A120G C125A U144A,-1.16
15,C95U C96U G124U G136C,-3.61
16,U104A A137C,-3.89
17,C95A,0.441
18,C95U,-0.031
19,A97G U102A C129A,-3.98
20,C96A G152U,-2.51
21,C96U U109C,-3.67
22,C103A A142G,-2.71
23,C96U A137U,-3.84
24,A98U G136C,-3.87

row,Variant,polymerase ribozyme fitness (log ratio)
1,A97G G141C,-1.86
2,C96U G126U A137C A138G,≤ -4.2
3,C96A C125A,-0.718
4,C95G C96G,-2.17
5,C95G C96U,-2.05
6,C96U A115U,-2.64
7,A98U A115U A121G U127G,-3.32
8,C99A U148G,≤ -4.2
9,C99G C114U,-2.38
10,C96A U135C,-1.91
11,U101G A113U,-1.25
12,C96U A113U G124U,-2.41
13,U102G C116A,-2.07
14,C95U C123A C125U,-0.165
15,U102G G124C G133A A137G G143U,≤ -4.2
16,C96U A113G G136C,-3.93
17,C96U A107G G117A,≤ -4.2
18,C96U A110U,-3.6
19,C96A A115U A147C,-3.48
20,C99G C149U,-1.74
21,U104G G141U,0.973
22,C96U G143C U146C,-1.75
23,C96A G143C,-2.38
